Like-named read-outs stand apart in the source and are kept apart here.
Columns and labels:
[1] = molecular target: collagen type I, bovine tendon, as absorbable collagen sponge (ACS) (bovine) (UniProt P02453); assay: absorption and release from a collagen sponge, protein in the supernatant by micro-BCA; ACS (150 μL) treated with the fragment in PBS for 1 h at room temperature (75 μg; for ColG-FNIII12-14 also 37.5 and 15 μg); release into 150 μL PBS at 37 °C, supernatant taken and PBS refreshed at 36, 60, 120 h
[2] = molecular target: collagen type I, bovine tendon, as absorbable collagen sponge (ACS) (bovine) (UniProt P02453)
[3] = molecular target: collagen type I, bovine tendon, as absorbable collagen sponge (ACS) (bovine) (UniProt P02453); remark: listed apart in the source
[4] = molecular target: ColG-FNIII12-14 treated collagen scaffold (Clostridium histolyticum | not stated | bovine) (UniProt P02453); assay: absorption and release of fluorescent rhBMP-2 from a collagen sponge, fluorescence of the supernatant; Dylight 488 rhBMP-2 (0.1, 0.5, 1, 2 μg/mL) incubated 1 h at 37 °C with ACS with or without ColG-FNIII12-14; release into PBS at 37 °C, supernatant read and PBS refreshed at 36, 60, 120 h

Sequence of UniProt P02453 (P02453 162-1217, chain 1 of 2): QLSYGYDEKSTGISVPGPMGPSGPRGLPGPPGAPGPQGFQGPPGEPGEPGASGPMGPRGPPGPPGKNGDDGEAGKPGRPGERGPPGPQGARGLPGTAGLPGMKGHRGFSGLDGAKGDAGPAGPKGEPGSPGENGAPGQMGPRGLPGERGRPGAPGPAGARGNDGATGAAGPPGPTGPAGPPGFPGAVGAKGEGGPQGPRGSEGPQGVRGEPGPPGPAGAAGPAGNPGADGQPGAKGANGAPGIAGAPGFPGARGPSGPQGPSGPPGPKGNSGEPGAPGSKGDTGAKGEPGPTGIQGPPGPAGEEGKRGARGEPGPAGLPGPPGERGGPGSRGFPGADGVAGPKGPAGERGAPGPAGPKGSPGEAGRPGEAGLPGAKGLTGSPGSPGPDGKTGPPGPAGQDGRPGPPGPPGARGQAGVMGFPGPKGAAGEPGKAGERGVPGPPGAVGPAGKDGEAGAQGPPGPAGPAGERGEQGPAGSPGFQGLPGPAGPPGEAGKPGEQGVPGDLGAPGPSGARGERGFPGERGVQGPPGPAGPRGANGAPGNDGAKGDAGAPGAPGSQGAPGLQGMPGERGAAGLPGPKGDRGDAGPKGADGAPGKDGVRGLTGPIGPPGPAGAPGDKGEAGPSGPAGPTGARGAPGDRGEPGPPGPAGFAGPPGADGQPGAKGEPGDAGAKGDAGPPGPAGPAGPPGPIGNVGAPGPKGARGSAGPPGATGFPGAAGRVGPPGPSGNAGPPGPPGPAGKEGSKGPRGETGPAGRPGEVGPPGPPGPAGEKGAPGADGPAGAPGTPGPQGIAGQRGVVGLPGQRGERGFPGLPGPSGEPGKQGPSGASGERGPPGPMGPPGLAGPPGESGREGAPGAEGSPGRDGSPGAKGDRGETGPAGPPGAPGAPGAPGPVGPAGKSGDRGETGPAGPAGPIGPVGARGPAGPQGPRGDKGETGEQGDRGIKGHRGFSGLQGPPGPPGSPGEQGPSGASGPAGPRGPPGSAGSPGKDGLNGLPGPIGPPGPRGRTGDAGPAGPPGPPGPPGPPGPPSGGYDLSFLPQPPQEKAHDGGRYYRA
Sequence of UniProt P02453 (P02465 80-1117, chain 2 of 2, further chain): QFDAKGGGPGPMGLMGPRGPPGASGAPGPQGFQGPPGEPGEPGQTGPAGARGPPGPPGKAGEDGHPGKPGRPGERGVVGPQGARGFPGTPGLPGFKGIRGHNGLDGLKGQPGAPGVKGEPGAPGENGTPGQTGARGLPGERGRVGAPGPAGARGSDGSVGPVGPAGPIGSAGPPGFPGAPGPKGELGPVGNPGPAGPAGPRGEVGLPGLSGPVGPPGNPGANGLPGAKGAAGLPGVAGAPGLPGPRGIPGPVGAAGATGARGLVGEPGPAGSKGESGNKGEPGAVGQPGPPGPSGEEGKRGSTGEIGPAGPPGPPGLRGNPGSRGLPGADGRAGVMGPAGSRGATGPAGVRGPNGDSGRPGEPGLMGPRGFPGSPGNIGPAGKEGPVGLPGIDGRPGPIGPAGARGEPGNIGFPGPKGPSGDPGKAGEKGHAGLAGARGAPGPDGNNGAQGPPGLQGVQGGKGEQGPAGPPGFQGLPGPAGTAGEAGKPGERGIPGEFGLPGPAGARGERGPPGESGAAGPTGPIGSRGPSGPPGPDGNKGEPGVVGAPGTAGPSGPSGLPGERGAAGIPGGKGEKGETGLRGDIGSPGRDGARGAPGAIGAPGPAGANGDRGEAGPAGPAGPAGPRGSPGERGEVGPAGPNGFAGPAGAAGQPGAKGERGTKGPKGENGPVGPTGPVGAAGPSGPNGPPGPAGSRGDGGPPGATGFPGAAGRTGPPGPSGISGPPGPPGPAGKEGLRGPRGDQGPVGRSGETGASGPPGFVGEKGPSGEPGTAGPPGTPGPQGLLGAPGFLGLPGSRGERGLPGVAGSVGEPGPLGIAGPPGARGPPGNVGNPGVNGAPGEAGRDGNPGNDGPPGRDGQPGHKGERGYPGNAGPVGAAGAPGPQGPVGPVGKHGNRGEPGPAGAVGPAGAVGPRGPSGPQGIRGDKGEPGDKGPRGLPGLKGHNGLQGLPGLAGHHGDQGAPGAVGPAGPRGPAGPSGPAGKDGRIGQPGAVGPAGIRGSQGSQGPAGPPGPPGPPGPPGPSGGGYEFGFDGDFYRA

## PLGF-FNIII12-14 protein fragment
[1]
  percent of the absorbed fragment remaining bound after 120 h: 10%

## ColG-FNIII12-14 protein fragment
[1]
  percent of the absorbed fragment remaining bound after 120 h: 43%

## ColH-FNIII12-14 protein fragment
[2]
  percent of the absorbed fragment remaining bound after 120 h: 10%
[3]
  amount of fragment remaining on the ACS after 120 h (pmol per 1 mg of collagen): 90

B1: recombinant human bone morphogenic protein 2, tagged with Dylight 488 (ligand)
chain: QAKHKQRKRLKSSCKRHPLYVDFSDVGWNDWIVAPPGYHAFYCHGECPFPLADHLNSTNHAIVQTLVNSVNSKIPKACCVPTELSAISMLYLDENEKVVLKNYQDMVVEGCGCR
modifications: Dylight 488 (amino reactive NHS ester dye)
[4]
  percent of rhBMP-2 absorbed: 30 to 32%
  percent of the absorbed rhBMP-2 retained after 120 h: 33%
